This is an account of results in PMC5749897.

Read-outs that look alike come from different tables or passages of the source.

Assay [1] concerns the target A4. As to the kind of experiment: flow cytometry or ELISA. Particulars: read off a plot. For orientation: A flow cytometer gives signals particle by particle.
The target in assay [2] is HCV1. As to the kind of experiment: flow cytometry or ELISA. The note with it: read off a plot.
Assay [3] deals with AP33. As to the kind of experiment: flow cytometry or ELISA. Particulars: read off a plot.
In the next assay the target is AR1A. As to the kind of experiment: flow cytometry.
The next assay addresses AR2A. Description: flow cytometry. Particulars: read off a plot.
Assay [4] deals with HCV1. As to the kind of experiment: flow cytometry. The note with it: read off a plot.
The target of assay [5] is AP33. As to the kind of experiment: flow cytometry. The note with it: read off a plot.
Assay [6] concerns the target E1E2 G278A (H77 alanine-scanning library clone) (hepatitis C virus genotype 1a, strain H77). Description: flow cytometry on cells.
In assay [7] the target is E1E2 I622A (H77 alanine-scanning library clone) (hepatitis C virus genotype 1a, strain H77). Description: flow cytometry on cells.
Assay [8] addresses E1E2 W616A (H77 alanine-scanning library clone) (hepatitis C virus genotype 1a, strain H77). As to the kind of experiment: flow cytometry on cells.
In assay [9] the target is E1E2 D279A (H77 alanine-scanning library clone) (hepatitis C virus genotype 1a, strain H77). Description: flow cytometry on cells.
Assay [10] addresses E1E2 Y276A (H77 alanine-scanning library clone) (hepatitis C virus genotype 1a, strain H77). As to the kind of experiment: flow cytometry on cells.
Assay [11] deals with E1E2 Y613A (plasmid H77c, no V5 tag) (hepatitis C virus genotype 1a, strain H77). Description: flow cytometry on cells.
For assay [12], the target named is E1E2 F627A, ELISA antigen (transfected cell lysate) (hepatitis C virus genotype 1a, strain H77). Description: ELISA. (ELISA stands for enzyme-linked immunosorbent assay.)
Assay [13] has as its target E1E2 I622A, ELISA antigen (transfected cell lysate) (hepatitis C virus genotype 1a, strain H77). Description: ELISA.
The next assay addresses AR1B. As to the kind of experiment: flow cytometry.
Assay [14] has as its target A4. Description: flow cytometry. Particulars: read off a plot.
In a further assay the target is AR3A. Description: flow cytometry. Particulars: read off a plot.
The target in assay [15] is recombinant CD81-LEL Fc-fusion protein. Description: ELISA. Particulars: first point of the titration, dilution 1/1; parent: est. 0.42; read off a plot.
Assay [16] addresses HCV1. As to the kind of experiment: ELISA. Particulars: first point of the titration, dilution 1/100; parent: est. 1.3; read off a plot.
Assay [17] addresses CD81-Fc (K124T), a mutant that reduces CD81 dimerization (UniProt P60033). As to the kind of experiment: ELISA. The note with it: first point of the titration, dilution 1/1; parent: est. 0.65; read off a plot.
The target of assay [18] is soluble WT E2c (E2 core domain). As to the kind of experiment: ELISA. Particulars: first point of the titration, dilution 1/1; parent: est. 0.42; read off a plot.

Chain of CD81-Fc (K124T), a mutant that reduces CD81 dimerization (P60033 whole entry K124T, looked up, the tested form may be a part): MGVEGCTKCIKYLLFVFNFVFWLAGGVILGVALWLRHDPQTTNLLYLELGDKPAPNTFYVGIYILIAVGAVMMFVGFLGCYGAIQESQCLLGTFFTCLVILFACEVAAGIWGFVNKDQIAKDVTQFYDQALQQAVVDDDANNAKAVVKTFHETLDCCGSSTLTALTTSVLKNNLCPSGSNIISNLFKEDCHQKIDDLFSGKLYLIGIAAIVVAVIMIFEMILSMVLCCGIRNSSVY

As for “wild-type HCV E1E2, plasmid H77c (no V5 tag) T396A”, the percent of parent with A4 [1] was 85 % of WT; with HCV1 [2], 98 % of WT; with AP33 [3] it was 68 % of WT.
Regarding “wild-type HCV E1E2 (genotype 1a, strain H77) expression construct with C-terminal V5 epitope tag T518A”, the percent of parent was 100 % of WT with AR1A (read off a plot), 140 % of WT in the assay with AR2A, 100 % of WT with HCV1 [4] and 106 % of WT with AP33 [5].
With “wild-type HCV E1E2 (genotype 1a, strain H77) expression construct with C-terminal V5 epitope tag L438A”, the values for the percent of parent with HCV1 [4] and with AP33 [5] were 75 % of WT and 76 % of WT, respectively.
As for “wild-type HCV E1E2, plasmid H77c (no V5 tag) C452A”, the percent of parent is 93 % of WT in the assay with A4 [1], 77 % of WT with HCV1 [2] and 60 % of WT with AP33 [3].
As for “wild-type HCV E1E2, plasmid H77c (no V5 tag) Y624A”, the percent of parent in the assay with A4 [1] is 43 % of WT; in the assay with AP33 [3] it was 38 % of WT.
For the substance “wild-type HCV E1E2 (genotype 1a, strain H77) expression construct with C-terminal V5 epitope tag G495A”, the percent of parent with AR1A (read off a plot) was 26 % of WT; in the assay with HCV1 [4], 92 % of WT.
“wild-type HCV E1E2 (genotype 1a, strain H77) expression construct with C-terminal V5 epitope tag Y485A”: the percent of parent was 43 % of WT with AR1A (read off a plot) and 104 % of WT with AP33 [5].
As for “recombinant CD81-LEL Fc-fusion protein (Fc fusion)”, the % CD81 binding (of wild type) in assay [6] was found to be 50%; in assay [9], 48%; in assay [10] it was 50%. Moreover, the enhancement of binding over wild type is 49% in assay [7], 13% in assay [12] and 56% in [13]. Also, the % binding activity in assay [8] and in assay [11] was under 3% in each case. The % of wild-type reactivity (% of wild-type reactivity) in [8] and in assay [11] was under 25 throughout.
For the substance “wild-type HCV E1E2 (genotype 1a, strain H77) expression construct with C-terminal V5 epitope tag C503A”, in the assay with AR1A (read off a plot), the percent of parent is 200 % of WT.
Regarding “wild-type HCV E1E2, plasmid H77c (no V5 tag) K562A”, the percent of parent is 77 % of WT with A4 [1], 95 % of WT in the assay with HCV1 [2] and 75 % of WT with AP33 [3].
“wild-type HCV E1E2 (genotype 1a, strain H77) expression construct with C-terminal V5 epitope tag G547A”: the percent of parent with AR1B (read off a plot) was 22 % of WT; with AR1A (read off a plot), 18 % of WT; in the assay with A4 [14], 74 % of WT; with HCV1 [4], 44 % of WT.
On to “wild-type HCV E1E2 (genotype 1a, strain H77) expression construct with C-terminal V5 epitope tag G440A”, for which the percent of parent was 84 % of WT in the assay with AR1A (read off a plot); 20 % of WT with AR3A; 82 % of WT with AR2A; 84 % of WT with HCV1 [4]; 81 % of WT with AP33 [5].
“wild-type HCV E1E2 (genotype 1a, strain H77) expression construct with C-terminal V5 epitope tag P544A”: the percent of parent with AR1B (read off a plot) is 5 % of WT; in the assay with AR1A (read off a plot), 9 % of WT; with HCV1 [4], 45 % of WT.
On to “wild-type HCV E1E2 (genotype 1a, strain H77) expression construct with C-terminal V5 epitope tag P545A”, for which the percent of parent with AR1B (read off a plot) was 6 % of WT; with AR1A (read off a plot), 18 % of WT; with HCV1 [4], 92 % of WT.
For “wild-type HCV E1E2, plasmid H77c (no V5 tag) R237A”, the percent of parent with A4 [1] was 82 % of WT; with HCV1 [2], 105 % of WT; with AP33 [3] it was 110 % of WT.
With soluble WT E2c (E2 core domain) I622A, the response in assay [15] was determined as 1.4 OD450; with HCV1 [16] it was 1.3 OD450; in assay [17] it was 1.5 OD450.
As for “wild-type HCV E1E2 (genotype 1a, strain H77) expression construct with C-terminal V5 epitope tag W549A”, the percent of parent with AR1B and in the assay with AR1A was < 0 % of WT each time.
In the case of “soluble WT E2c (E2 core domain) I622A; F627A”, the response stood at 0.94 OD450 in assay [15], 1.3 OD450 with HCV1 [16] and 1.2 OD450 in [17].
Consider “wild-type HCV E1E2 (genotype 1a, strain H77) expression construct with C-terminal V5 epitope tag N548A”, for which the percent of parent with AR1B is < 0 % of WT; in the assay with AR1A (read off a plot), 23 % of WT.
“wild-type HCV E1E2 (genotype 1a, strain H77) expression construct with C-terminal V5 epitope tag W437A”: the percent of parent with HCV1 [4] is 95 % of WT; with AP33 [5], 77 % of WT.
With “wild-type HCV E1E2, plasmid H77c (no V5 tag) D346A”, the results for the percent of parent in the assay with A4 [1], with HCV1 [2] and with AP33 [3] were 95 % of WT, 98 % of WT and 100 % of WT, respectively.
As for “recombinant CD81-LEL Fc-fusion protein K124T”, the response in assay [18] stood at 0.65 OD450.
As to “wild-type HCV E1E2, plasmid H77c (no V5 tag) W712A”, the percent of parent with A4 [1] is 80 % of WT; with HCV1 [2], 82 % of WT; with AP33 [3], 81 % of WT.
soluble WT E2c (E2 core domain) F627A: the values for the response (in [15]; with HCV1 [16]; in assay [17]) were 0.38 OD450, 1.3 OD450 and 0.62 OD450, respectively.
Consider “wild-type HCV E1E2 (genotype 1a, strain H77) expression construct with C-terminal V5 epitope tag Y632A”, for which the percent of parent with AR1A is < 0 % of WT.
As to “wild-type HCV E1E2, plasmid H77c (no V5 tag) Q336A”, the percent of parent was 88 % of WT with A4 [1], 88 % of WT with HCV1 [2] and 80 % of WT with AP33 [3].
“wild-type HCV E1E2, plasmid H77c (no V5 tag) C272A”: the results for the percent of parent with A4 [1], with HCV1 [2] and with AP33 [3] were 93 % of WT, 98 % of WT and 85 % of WT, respectively.
